Test [1] deals with T1, Human GPA33 (recombinant protein, Novoprotein) (human, UniProt Q99795 22-235).
T1 construct: Bought recombinant protein immobilized on a CM5 chip; also called GPA33 antigen; tumor antigen GPA33
T1 sequence: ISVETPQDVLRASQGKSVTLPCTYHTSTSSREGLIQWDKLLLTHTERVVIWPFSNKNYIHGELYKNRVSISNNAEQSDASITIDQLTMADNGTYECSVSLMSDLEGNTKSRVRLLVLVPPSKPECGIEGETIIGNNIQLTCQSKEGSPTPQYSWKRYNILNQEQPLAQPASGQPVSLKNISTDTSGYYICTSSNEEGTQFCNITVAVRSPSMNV
Nature of the test: SPR. A digest of the protocol:
(§1)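 Surface plasmon resonance on a Biacore system with immobilised recombinant human GPA33 (Novoprotein) was used to determine KD by kinetic fitting. The values given are each KD divided by the KD of a reference molecule.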

The target of test [2] is T2, Human GPA33 on GPA33+ colorectal cancer cell lines (Colo 205, LS 174T, SW 1222) (human, UniProt Q99795 22-319).
T2 construct: Endogenous GPA33 on human colorectal cancer cell lines; also called surface human GPA33; GPA33+ tumor cell lines
T2 sequence: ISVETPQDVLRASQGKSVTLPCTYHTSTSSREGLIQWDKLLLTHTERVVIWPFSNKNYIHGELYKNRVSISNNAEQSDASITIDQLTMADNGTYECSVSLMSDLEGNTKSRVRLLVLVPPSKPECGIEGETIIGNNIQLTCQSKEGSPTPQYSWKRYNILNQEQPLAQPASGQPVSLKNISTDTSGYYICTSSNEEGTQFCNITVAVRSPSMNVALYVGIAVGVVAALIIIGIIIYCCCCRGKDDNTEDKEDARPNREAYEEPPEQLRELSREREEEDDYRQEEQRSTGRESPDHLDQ
Nature of the test: flow cytometry, LS 174T cells. (In general: Flow cytometry measures light scatter and fluorescence of single cells or particles in a stream.)

Test [3] addresses T2, Human GPA33 on GPA33+ colorectal cancer …. Briefly: flow cytometry, SW 1222 cells.
For test [4] the target is unchanged. Nature of the test: flow cytometry, Colo 205 cells; Colo 205 cells.
For test [5] the target is unchanged. Briefly: FACS binding to LS174T cells (GPA33+).
The target is the same in test [6]. Nature of the test: FACS binding to SW1222 cells (GPA33+).
Test [7] has the same target. Nature of the test: FACS binding to Colo205 cells (GPA33+).
Test [8] has as its target T1, Human GPA33 (recombinant protein, …). Briefly: SPR (Biacore), human GPA33 immobilized on CM5 chip, two-state fit. A digest of the protocol:
(§2)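 GPA33 immobilized on CM5 chip; five 2-fold dilutions of huA33 IgG1 or huA33 bispecifics from 20 nM injected. Kinetics measured at 25 °C for huA33, at both 25 °C and 37 °C for bispecifics; sensorgrams fitted to a two-state binding model.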
A general note: In SPR one partner is held on a chip, and binding of the other changes the refractive index at the surface.

The target is the same in test [9]. Briefly: SPR (Biacore), human GPA33 immobilized on CM5 chip, two-state fit, ka1. A digest of the protocol: as §2
For test [10] the target is unchanged. Briefly: SPR (Biacore), human GPA33 immobilized on CM5 chip, two-state fit, kd1. A digest of the protocol: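 The off-rate (kd1) was measured by surface plasmon resonance on a Biacore T100, with recombinant human GPA33 (Novoprotein) immobilised on a CM5 chip. Antibodies were flowed over at five concentrations, 2-fold serial dilutions starting at 20 nM. The parent IgG1 was run at 25° C and bispecific formats at 25° C and 37° C. Sensorgrams were fitted with a two-state binding model to derive the kinetic parameters.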

The target in test [11] is T2, Human GPA33 on GPA33+ colorectal cancer …. Briefly: FACS binding to Colo205 cells (GPA33+); the text prints 2.46 nM for this pair.
Test [12] deals with T1, Human GPA33 (recombinant protein, …). Nature of the test: SPR (Biacore), human GPA33 immobilised on the chip; KD relative to that of TC170. An outline of the steps:
as §1

The target of test [13] is T2, Human GPA33 on GPA33+ colorectal cancer …. Briefly: FACS titration on Colo205 cells, geometric mean MFI (the text prints 2.46 nM and calls it IC50).

B1: TC159 (bispecific antibody)
chain: EVQLVESGGGLVKPGGSLRLSCAASGFAFSTYDMSWVRQAPGKRLEWVATISSGGSYTYYLDSVKGRFTISRDNAKNSLYLQMNSLRAEDTAVYYCAPTTVVPFAYWGQGTLVTVSSGGGGSGGGGSGGGGSGGGGSGGGGSGGGGSDIQMTQSQSSLSTSVGDRVTITCKASQNVRTVVAWYQQKPGKSPKTLIYLASNRHTGVPSRFSGSGSGTEFTLTISNVQPEDFADYFCLQHWSYPLTFGSGTKLEIKRGGGGSGGGGSGGGGSGGGGSHVQLVESGGGLVQPGGSLRLSCAASGFSLTDYGVHWVRQAPGKGLEWLGVIWSGGGTAYNTALISRFTISRDNSKNTLYLQMNSLRAEDTAVYYCARRGSYPYNYFDAWGCGTLVTVSSGGGGSGGGGSGGGGSGGGGSGGGGSGGGGSQAVVTQEPSLTVSPGGTVTLTCGSSTGAVTASNYANWVQQKPGQCPRGLIGGHNNRPPGVPARFSGSLLGGKAALTLLGAQPEDEAEYYCALWYSDHWVIGGGTKLTVLGTPLGDTTHTSGKPLDGEYFTLQIRGRERFEMFRELNEALELKDAQAGKEPGGSGGAPHHHHHH
notes: Previously described GPA33xDOTA SADA clone whose GPA33 scFv comes from another clone; Carries the p53 SADA (tetramerization) domain
B1: the “fold higher affinity than TC160” value in [1] came to 3 fold. For the same molecule, the IC50 (in general, the concentration needed to halve the response being measured) stood at 1.22 nM in [2] and 0.4 nM in [3]. The 50% effective concentration (EC50) – broadly, the midpoint of the concentration-response curve – worked out at 2.46 nM in test [4], 2.47 nM in test [11] and 2.47 nM in test [13]. For the same molecule, the “fold change of binding EC50 (relative to TC170, lower is better)” value amounted to 3.94 in test [5], 0.24 in test [6] and 3.34 in [7]. For the same molecule, in test [8], the dissociation constant (Kd) – broadly, the free concentration of one partner at which half of the binding sites on the other are occupied at equilibrium, for simple one-to-one binding – was 0.0216 nM. Moreover, the ka2 in [8] was 0.00613 s⁻¹. For the same molecule, the kd2 in [8] worked out at 0.000315 s⁻¹. Besides, the kon (usually the second-order rate constant of association) in [9] is 4.09e+06 M⁻¹ s⁻¹. The koff (commonly the first-order rate constant of dissociation) in [10] was found to be 0.00181 s⁻¹. For the same molecule, the “Fold change of KD (relative to TC170, lower is better)” value in [12] was 1.4.

For the origin of these results see patent publication US20240026037A1 (Memorial Sloan Kettering, published 2024).
